Patent US6693166 (HONG KONG UNIVERSITY OF SCIENCE AND TECHNOLOGY, dated 2004)

Target: T1, GST-Cdk5.GST-Nck5a complex (Homo sapiens (Human), UniProt Q00535 1-292; Q15078 99-307)
T1 construct: also called Cdk5/Nck5a complex; Cdk5.Nck5a complex
Assay: steady state kinase kinetics with histone H1 peptide as substrate, Dixon plot; noncompetitive with respect to the substrate
Method: Peptide Inhibition of Cdk5 and Cdk2 Kinase Activity—Cdk5 kinase activity was assayed essentially as described previously, except that for each Cdk5 kinase reaction 1 µg of GST-Cdk5 was reconstituted with 2 µg of GST-Nck5a, and 1 µg of GST-Cdk2 was mixed with 3 µg of cyclin A-H6 in Cdk2 assays. The reconstituted complexes were added, in duplicate, to an assay mixture containing 30 mM MOPS, pH 7.4, 10 mM MgCl_2, 40 µM of the histone H1 peptide, 50 µM [γ-^32P]ATP, and various concentrations of various peptides at 30° C. for 30 min before measuring the Cdk5 and Cdk2 kinase activities.
Steady State Kinetic Experiments—All assay conditions were the same as in the inhibition assay described above, except that the reaction time was kept at 15 min so that the product formed was less than 5% of the total substrate concentration used. To determine suitable concentrations of the substrate and the inhibitor for the steady state kinetic experiments, the K_m value of GST-Cdk5.GST-Nck5a complex and a concentration-dependent inhibition profile of the enzyme by the α_N peptide were determined. […]
Kinetic Analysis of Cdk5 Inhibition by the α_N Peptide—We also analyzed the kinetic properties of the α_N peptide with respect to the kinase substrate, the histone H1 peptide.

B1: synthetic 28-residue Nck5a peptide corresponding to Ala146 to Asp173 of Nck5a (peptide)
peptide: ASTSELLRCLGEFLCRRCYRLKHLSPTD
notes: Chemically synthesised (Fmoc), purity above 95%; Gln145 of the recombinant 29-residue fragment was left out; also called αN peptide
- Ki: ~25 µM
